Six molecules from US20140275487A1 (VIB VZW, published 2014) can be followed below.

The experiment has as its target T1, agonist-bound β2AR-356 reconstituted at high density into phospholipid vesicles (UniProt P07550 1-365).
T1 construct: Solid phase coated on Maxisorb plates for ELISA; also called purified receptor alone; reconstituted receptor alone
Nature of the experiment: ELISA on purified receptor alone. A general note: ELISA stands for enzyme-linked immunosorbent assay.

B1: Nanobody 40 (CA4440) (VHH)
VHH: QVQLQESGGGLVQAGGSLRLSCAVSGTIFDITPMGWYRQTPGKQREVVADLTSRGTTNYADSVKGRFTISRDNAKKMLYLQMNSLKSDDTGVYYCNVKRWGGIGWNDYWGQGTQVTVSS
notes: Tested as periplasmic extract in ELISA; also called Nb40
For B1, the binding result is listed as “no binding”.

B2: Nanobody 35 (CA4435) (VHH)
VHH: QVQLQESGGGLVQPGGSLRLSCAASGFTFSNYKMNWVRQAPGKGLEWVSDISQSGASISYTGSVKGRFTISRDNAKNTLYLQMNSLKPEDTAVYYCARCPAPFTRDCFDVTSTTYAYRGQGTQVTVSS
notes: Llama VHH raised against the BS2G cross-linked β2AR:Gs:BI167107 complex; expressed in E. coli periplasm; also called Nb35; NB35
For the molecule B2, the binding result is listed as “no binding”.

B3: Nanobody 37 (CA4437) (VHH)
VHH: QVQLQESGGGFVQAGGSLRLSCAASGSIFSKNTMAWFRQAPGKERELVAASPTGGSTAYKDSVKGRFTISRDSAKNTVLLQMNVLKPEDTAVYYCHLRQNNRGSWFHYWGQGTQVTVSS
notes: also called Nb37
As to B3, the binding result is recorded as “no binding”.

B4: Nanobody 33 (CA4433) (VHH)
VHH: QVQLQESGGGLVQPGGSLRLSCAASGFTFSNYVMNWVRQAPGKGLEWVSDISNGGGTTSYASSVKGRFTISRDNAKNTLYLQMNGLKPADTAVYYCARCPAPFTNDCMDITSTTYAYRGQGTQVTVSS
notes: Tested as periplasmic extract in ELISA; also called Nb33
Take B4: the binding result is “no binding”.

B5: Nanobody 36 (CA4436) (VHH)
VHH: QVQLQESGGGSVQAGGSLRLSCTVSGTIFSVTVMGWYRQAPGKQRELVAGFTNTRNTNYVDSVKGRFTISKDSAKNTMYLQMNSLKPEDTAVYYCNVRRWGGTNWNDYWGQGTQVTVSS
notes: also called Nb36
With B5, the binding result is reported as “no binding”.

B6: Nanobody 41 (CA4441) (VHH)
VHH: QVQLQESGGGLVQSGGSLRLSCVASGFRFSNFPMMWVRQAPGKGLEWVSLISIGGSTTNYADSVKGRFTISRDNAKNTLFLQMNSLKPEDTAVYYCAKYLGRLVPPTTEGQGTQVTVSS
notes: Tested as periplasmic extract in ELISA; also called Nb41
B6: the binding result is recorded as “no binding”.
